# In patent US20230192818A1:
# B1: 3-31 (Fc fusion)
# chain: EVQLVESGGGLVQPGGSLRLSCAASGSTFSINAMGWFRQAPGKEREFVAGITSSGGYTNYADSVKGRFTISADNSKNTAYLQMNSLKPEDTAVYYCAADGVPEYSDYASGPVWGQGTLVTVSS
# How the values were obtained:
# [1] = target: Antibody 178-09_His B.1.1.7 (27080) (SARS-CoV-2), P0DTC2; experiment: SPR (Carterra); settings: remark: other sources report otherwise
# [2] = target: Delta spike trimer (SARS-CoV-2), P0DTC2; settings: remark: other sources report otherwise
binder,measurement,setting,value
B1,Kd,[1],16.1 nM
same,IC50,[2],3 nM
